The text below walks through data of patent US20240336927.

The data set deals with IgG SLE S6 (anti-BC autoantibody, polyclonal) (human). Kind of data set: EMSA. As to conditions: reactivity relative to BC200 RNA. For orientation: In EMSA bound probe runs differently from free probe, usually more slowly.

Take U4 snRNA: the binding signal is below 5%.
